B1: Hairpin Ribozyme (parent)
chain: GUCCUCUUUCACGUGCGCGUGAAAGAGAGAAGUGAACCAGAGAAACACACGUUGUGGUAUAUUACCUGGUA

Variants of: B1
Experiment: self-cleavage, relative activity (ratio to wild type); higher = more cleavage; co-transcriptional

Variant | self-cleavage
GUCCUCUUUCACGUGCGCGUGAAAGAGAGAAGUGAACCAGAGAAACACACGGUGCGGUAUAUUACCUGGUA [U52G U55C] | 0.193
GUCCUCUUUCACGUGCGCGUGAAAGAGAGAAGUGAACCAGAGAAACACACGGUGAGGUAUAUUACCUGGUA [U52G U55A] | 0.135
GUCCUCUUUCACGUGCGCGUGAAAGAGAGAAGUGAACCAGAGAAACACACGGUGGGGUAUAUUACCUGGUA [U52G U55G] | 0.398
GUCCUCUUUCACGUGCGCGUGAAAGAGAGAAGUGAACCAGAGAAACACACGUGGUGGUUUAUUACCUGGUA [U53G A59U] | 0.119
GUCCUCUUUCACGUGCGCGUGAAAGAGAGAAGUGAACCAGAGAAACACACGUGGUGGUAUAUUACCAGGUA [U53G U67A] | 0.182
GUCCUCUUUCACGUGCGCGUGAAAGAGAGAAGUGAACCAGAGAAACACACGUGGUGGUAUAUUACCCGGUA [U53G U67C] | 0.136
GUCCUCUUUCACGUGCGCGUGAAAGAGAGAAGUGAACCAGAGAAACACACGUGGUGGUAUAUUACCGGGUA [U53G U67G] | 0.119
GUCCUCUUUCACGUGCGCGUGAAAGAGAGAAGUGAACCAGAGAAACACACGGUGUCGUAUAUUACCUGGUA [U52G G56C] | 0.0868
GUCCUCUUUCACGUGCGCGUGAAAGAGAGAAGUGAACCAGAGAAACACACGGUGUGGUUUAUUACCUGGUA [U52G A59U] | 0.177
GUCCUCUUUCACGUGCGCGUGAAAGAGAGAAGUGAACCAGAGAAACACACGUAGUGGUAUAUUACCUGGCA [U53A U70C] | 0.951
GUCCUCUUUCACGUGCGCGUGAAAGAGAGAAGUGAACCAGAGAAACACACGUAGUGGUAUAUUACCUGGGA [U53A U70G] | 0.987
GUCCUCUUUCACGUGCGCGUGAAAGAGAGAAGUGAACCAGAGAAACACACGUAGUGGUAUAUUACCUGGAA [U53A U70A] | 0.987
GUCCUCUUUCACGUGCGCGUGAAAGAGAGAAGUGAACCAGAGAAACACACGUGAUGGUAUAUUACCUGGUA [U53G G54A] | 0.569
GUCCUCUUUCACGUGCGCGUGAAAGAGAGAAGUGAACCAGAGAAACACACGGUGUGGUAUAUUACCUGUUA [U52G G69U] | 0.27
GUCCUCUUUCACGUGCGCGUGAAAGAGAGAAGUGAACCAGAGAAACACACGUAGUGGGAUAUUACCUGGUA [U53A U58G] | 0.603
GUCCUCUUUCACGUGCGCGUGAAAGAGAGAAGUGAACCAGAGAAACACACGUAGCGGUAUAUUACCUGGUA [U53A U55C] | 0.256
GUCCUCUUUCACGUGCGCGUGAAAGAGAGAAGUGAACCAGAGAAACACACGUAGGGGUAUAUUACCUGGUA [U53A U55G] | 0.389
GUCCUCUUUCACGUGCGCGUGAAAGAGAGAAGUGAACCAGAGAAACACACGUCGUUGUAUAUUACCUGGUA [U53C G56U] | 0.196
GUCCUCUUUCACGUGCGCGUGAAAGAGAGAAGUGAACCAGAGAAACACACGUAGUGGUAUAUUACCUGGUU [U53A A71U] | 0.706
GUCCUCUUUCACGUGCGCGUGAAAGAGAGAAGUGAACCAGAGAAACACACGUGGGGGUAUAUUACCUGGUA [U53G U55G] | 0.327
GUCCUCUUUCACGUGCGCGUGAAAGAGAGAAGUGAACCAGAGAAACACACGUCGUGGUAUAUUACCUGAUA [U53C G69A] | 0.607
GUCCUCUUUCACGUGCGCGUGAAAGAGAGAAGUGAACCAGAGAAACACACGUCGUGGUAUAUUACCUGCUA [U53C G69C] | 0.43
GUCCUCUUUCACGUGCGCGUGAAAGAGAGAAGUGAACCAGAGAAACACACGUAGUGGUAUAUUACCUGUUA [U53A G69U] | 0.26
GUCCUCUUUCACGUGCGCGUGAAAGAGAGAAGUGAACCAGAGAAACACACGUAGUGGUAUAUUACCUGCUA [U53A G69C] | 0.19
GUCCUCUUUCACGUGCGCGUGAAAGAGAGAAGUGAACCAGAGAAACACACGUGGUGGUAUAUUACGUGGUA [U53G C66G] | 0.152
GUCCUCUUUCACGUGCGCGUGAAAGAGAGAAGUGAACCAGAGAAACACACGUGGUGGUAUAUUACUUGGUA [U53G C66U] | 0.552

Variant | self-cleavage
GUCCUCUUUCACGUGCGCGUGAAAGAGAGAAGUGAACCAGAGAAACACACGUCAUGGUAUAUUACCUGGUA [U53C G54A] | 0.418
GUCCUCUUUCACGUGCGCGUGAAAGAGAGAAGUGAACCAGAGAAACACACGGUGUGGUAUAUUAGCUGGUA [U52G C65G] | 0.266
GUCCUCUUUCACGUGCGCGUGAAAGAGAGAAGUGAACCAGAGAAACACACGUAGUGGUAGAUUACCUGGUA [U53A U60G] | 0.684
GUCCUCUUUCACGUGCGCGUGAAAGAGAGAAGUGAACCAGAGAAACACACGUCGUGGUAUAUUACCUGGUU [U53C A71U] | 0.82
GUCCUCUUUCACGUGCGCGUGAAAGAGAGAAGUGAACCAGAGAAACACACGGUGUGGUAUAUCACCUGGUA [U52G U63C] | 0.0944
GUCCUCUUUCACGUGCGCGUGAAAGAGAGAAGUGAACCAGAGAAACACACGUAGUGGUAUAUUGCCUGGUA [U53A A64G] | 0.696
GUCCUCUUUCACGUGCGCGUGAAAGAGAGAAGUGAACCAGAGAAACACACGUAGUGGUAUAUUCCCUGGUA [U53A A64C] | 0.122
GUCCUCUUUCACGUGCGCGUGAAAGAGAGAAGUGAACCAGAGAAACACACGCUGUGGUAUAUUACCAGGUA [U52C U67A] | 0.178
GUCCUCUUUCACGUGCGCGUGAAAGAGAGAAGUGAACCAGAGAAACACACGUCGUGGUAUAUUACCAGGUA [U53C U67A] | 0.28
GUCCUCUUUCACGUGCGCGUGAAAGAGAGAAGUGAACCAGAGAAACACACGUCGUGGUAUAUUACCGGGUA [U53C U67G] | 0.462
GUCCUCUUUCACGUGCGCGUGAAAGAGAGAAGUGAACCAGAGAAACACACGUCGUGGUAUAUUACCCGGUA [U53C U67C] | 0.279
GUCCUCUUUCACGUGCGCGUGAAAGAGAGAAGUGAACCAGAGAAACACACGUCGUGAUAUAUUACCUGGUA [U53C G57A] | 0.326
GUCCUCUUUCACGUGCGCGUGAAAGAGAGAAGUGAACCAGAGAAACACACGUCGUGCUAUAUUACCUGGUA [U53C G57C] | 0.244
GUCCUCUUUCACGUGCGCGUGAAAGAGAGAAGUGAACCAGAGAAACACACGUGGUGGUAUAUUCCCUGGUA [U53G A64C] | 0.0581
GUCCUCUUUCACGUGCGCGUGAAAGAGAGAAGUGAACCAGAGAAACACACGGUGUGGUAUUUUACCUGGUA [U52G A61U] | 0.0725
GUCCUCUUUCACGUGCGCGUGAAAGAGAGAAGUGAACCAGAGAAACACACGGUGUGGUAUGUUACCUGGUA [U52G A61G] | 0.163
GUCCUCUUUCACGUGCGCGUGAAAGAGAGAAGUGAACCAGAGAAACACACGUGGUGGCAUAUUACCUGGUA [U53G U58C] | 0.987
GUCCUCUUUCACGUGCGCGUGAAAGAGAGAAGUGAACCAGAGAAACACACGUGGUGGGAUAUUACCUGGUA [U53G U58G] | 0.405
GUCCUCUUUCACGUGCGCGUGAAAGAGAGAAGUGAACCAGAGAAACACACGUCGUGGUAUCUUACCUGGUA [U53C A61C] | 0.142
GUCCUCUUUCACGUGCGCGUGAAAGAGAGAAGUGAACCAGAGAAACACACGUGGUGGUAUAUUACCUUGUA [U53G G68U] | 0.187
GUCCUCUUUCACGUGCGCGUGAAAGAGAGAAGUGAACCAGAGAAACACACGUGGUGGUAUAUUACCUCGUA [U53G G68C] | 0.18
GUCCUCUUUCACGUGCGCGUGAAAGAGAGAAGUGAACCAGAGAAACACACGUCGUGGUACAUUACCUGGUA [U53C U60C] | 1.5
GUCCUCUUUCACGUGCGCGUGAAAGAGAGAAGUGAACCAGAGAAACACACGGUGUGGUAUAUUACCUGGUU [U52G A71U] | 0.572
GUCCUCUUUCACGUGCGCGUGAAAGAGAGAAGUGAACCAGAGAAACACACGGUGUGGUAUAUUACCCGGUA [U52G U67C] | 0.203
GUCCUCUUUCACGUGCGCGUGAAAGAGAGAAGUGAACCAGAGAAACACACGGUGUGGUAUAUUACCUGGGA [U52G U70G] | 0.933
GUCCUCUUUCACGUGCGCGUGAAAGAGAGAAGUGAACCAGAGAAACACACGCUGUGGUAUAUUACCUGGAA [U52C U70A] | 1.22

Variant | self-cleavage
GUCCUCUUUCACGUGCGCGUGAAAGAGAGAAGUGAACCAGAGAAACACACGUAGUCGUAUAUUACCUGGUA [U53A G56C] | 0.208
GUCCUCUUUCACGUGCGCGUGAAAGAGAGAAGUGAACCAGAGAAACACACGUAGUAGUAUAUUACCUGGUA [U53A G56A] | 0.0996
GUCCUCUUUCACGUGCGCGUGAAAGAGAGAAGUGAACCAGAGAAACACACGUGGUGGUAUAUUACCUGCUA [U53G G69C] | 0.316
GUCCUCUUUCACGUGCGCGUGAAAGAGAGAAGUGAACCAGAGAAACACACGGUGUGGGAUAUUACCUGGUA [U52G U58G] | 0.498
GUCCUCUUUCACGUGCGCGUGAAAGAGAGAAGUGAACCAGAGAAACACACGUGGUGGUAUUUUACCUGGUA [U53G A61U] | 0.186
GUCCUCUUUCACGUGCGCGUGAAAGAGAGAAGUGAACCAGAGAAACACACGUAGUGGUAUAUUACCCGGUA [U53A U67C] | 0.279
GUCCUCUUUCACGUGCGCGUGAAAGAGAGAAGUGAACCAGAGAAACACACGUCGUGGAAUAUUACCUGGUA [U53C U58A] | 0.709
GUCCUCUUUCACGUGCGCGUGAAAGAGAGAAGUGAACCAGAGAAACACACGUGGUGCUAUAUUACCUGGUA [U53G G57C] | 0.202
GUCCUCUUUCACGUGCGCGUGAAAGAGAGAAGUGAACCAGAGAAACACACGUGGUGGUAUAUUAACUGGUA [U53G C65A] | 0.641
GUCCUCUUUCACGUGCGCGUGAAAGAGAGAAGUGAACCAGAGAAACACACGUCGUGGUAUAUUAACUGGUA [U53C C65A] | 1.06
GUCCUCUUUCACGUGCGCGUGAAAGAGAGAAGUGAACCAGAGAAACACACGUCGUGGUAUAUUAGCUGGUA [U53C C65G] | 0.236
GUCCUCUUUCACGUGCGCGUGAAAGAGAGAAGUGAACCAGAGAAACACACGUAGUGGUAUGUUACCUGGUA [U53A A61G] | 0.0972
GUCCUCUUUCACGUGCGCGUGAAAGAGAGAAGUGAACCAGAGAAACACACGUAGUGGUAUCUUACCUGGUA [U53A A61C] | 0.178
GUCCUCUUUCACGUGCGCGUGAAAGAGAGAAGUGAACCAGAGAAACACACGUAGUGGUAUAUUACAUGGUA [U53A C66A] | 0.205
GUCCUCUUUCACGUGCGCGUGAAAGAGAGAAGUGAACCAGAGAAACACACGGUGUGGUAUAUUGCCUGGUA [U52G A64G] | 0.301
GUCCUCUUUCACGUGCGCGUGAAAGAGAGAAGUGAACCAGAGAAACACACGGUGUGGUAUAUUCCCUGGUA [U52G A64C] | 0.0463
GUCCUCUUUCACGUGCGCGUGAAAGAGAGAAGUGAACCAGAGAAACACACGGUGUGGUAUAUUACAUGGUA [U52G C66A] | 0.189
GUCCUCUUUCACGUGCGCGUGAAAGAGAGAAGUGAACCAGAGAAACACACGUCGUGGUAUACUACCUGGUA [U53C U62C] | 0.347
GUCCUCUUUCACGUGCGCGUGAAAGAGAGAAGUGAACCAGAGAAACACACGGUGUGGUAUAAUACCUGGUA [U52G U62A] | 0.187
GUCCUCUUUCACGUGCGCGUGAAAGAGAGAAGUGAACCAGAGAAACACACGUCGUGGUAUAUUACAUGGUA [U53C C66A] | 0.249
GUCCUCUUUCACGUGCGCGUGAAAGAGAGAAGUGAACCAGAGAAACACACGUCGUGGUAUAUUACUUGGUA [U53C C66U] | 0.69
GUCCUCUUUCACGUGCGCGUGAAAGAGAGAAGUGAACCAGAGAAACACACGUGGUGGUAAAUUACCUGGUA [U53G U60A] | 0.44
GUCCUCUUUCACGUGCGCGUGAAAGAGAGAAGUGAACCAGAGAAACACACGUGGUGGUACAUUACCUGGUA [U53G U60C] | 1.12
GUCCUCUUUCACGUGCGCGUGAAAGAGAGAAGUGAACCAGAGAAACACACGUGGUGGUAUAGUACCUGGUA [U53G U62G] | 0.315

Reference: the RNAGym collection of RNA variant scans (doi:10.7554/elife.80360)
